# Reference: the DeepSol protein solubility set
# Assay: soluble on expression in E. coli; label from the status in PepcDB or PDB records
row,Sequence,soluble on expression in E. coli
1,MAHHHHHHMVSASPPQRDRGSPPTRPLSEPQDVDAPAAGTVQALRQAVEAQEACVRLLRARQAAREALLRHTRRLLTADDSIEWPGSVEQLVRQVEASLHKLQQAHSEAAAPAATTADNVAPTSAPSRSPRNAAGDADPSADPLARIFHSGVEAQLAAVAEPPHTLPASTLASRSSTAKRRKEAGESGLTNAVSTTSPPPGGPFPPRSAAMTALLARSASRQEAGHAAMLAALSALELSLMSNSGATEVGRDVHNAEPAWLRQVDSDSANDDDAAPEEQQQEKEGNRGDIASSDYSDDFECGSSTSSGADD,not soluble
2,MGNKITVEVTVYAAIEKVWKYWNEPAHIMKWCQASPEWHVPAAQNDLKAGGTFTTTMAAKDGSMSFDFGGVYDQVKTNDLIEYTIGDGRKVRIVFTHTGDTTNIVESFDPEETNPRELQQSGWQAILNSFKSYTENNLEHHHHHH,soluble
3,MSLKILICSDTHLGAGEKSHCLKDDCYLAFEEILQQANQEDVDLILHSGDFFDDQNPSKYCLTKTMELMRKYLMGKPKNSFDVAYTYEHNQEDNGFSMNQGIKYPMYVIHGNHDIPSGIEHVAGLDILQTAGLVNFIGKAEDISEIDNKTDQTILHLSPILLQKGTTRIALYGMSYKKNEEMNRLWASSQVQIDEPDGDVFKILLIHQDRILRNTLTTFPEELLKDRFNLIVFGHEHSSQVEEGTDVQIIQTGSSFPLSICEFEKAEKFIGLAHINGMKINMNKIALRNVREVFYEVVQMSQMIEGSANLEMVEHYIREEVQNFFDHVNTHSKTMLPLARIIIEYKSLGCIPNLRKMAFEFEKNIVNKGDCIKLKKKIQKREGHHHHHH,soluble
4,MKVNIDPTAPTFATYRRDMRAEQMAEDYPVVSIDSDALDAARMLAEHRLPGLLVTAGAGKQYAVLPASQVVRFIVPRYVQDDPLLAGVLNESTADRCAERLSGKKVRDVLPDHLVEVPPANADDTIIEVAAVMARLRSPLLAVVKDGSLLGVVTASRLLAAALKT,soluble
5,TPTRFLVAFDGSATSRKTVEMVSRSPLLQGMQAHVLTAGSDAGEARQALQWAREQLAQGGFDAITHHAAERPADALAAYAGQHGIDMLVMGAYGHSRIRQLVLGSTTTEILSRVSLAVLILR,not soluble
6,MGSDKIHHHHHHMKGYFGPYGGQYVPEILMPALEELEAAYEEIMKDESFWKEFNDLLRDYAGRPTPLYFARRLSEKYGARIYLKREDLLHTGAHKINNAIGQVLLAKKMGKTRIIAETGAGQHGVATATAAALFGMECVIYMGEEDTIRQKPNVERMKLLGAKVVPVKSGSRTLKDAINEALRDWITNLQTTYYVIGSVVGPHPYPIIVRNFQKVIGEETKKQILEKEGRLPDYIVACVGGGSNAAGIFYPFIDSGVKLIGVEAGGEGLETGKHAASLLKGKIGYLHGSKTFVLQDDWGQVQVTHSVSAGLDYSGVGPEHAYWRETGKVLYDAVTDEEALDAFIELSRLEGIIPALESSHALAYLKKINIKGKVVVVNLSGRGDKDLESVLNHPYVRERIR,not soluble
7,MKVEKEFPLMNFSLRRLPLFILIKTRKQTIEMNLRKKGHGIFFSRFGVFISKKKNHINICTLLLTKHPYTKGFPRQNVVETILFRRNSKTHFGRPATRRRPLGEREVNPSARSLG,soluble
8,SLEGWGRGLAMFYIRRVETPEGLVMVLVTDEDVMERAVYDEERGVRIIVSRSFYGGSLGTEADAIKTIEKADIIVLTGEKSVSIGVRMGLVNPDSVLEVKGIKQVQVFKFSY,soluble
9,MENRYSVHPEQVKRFTTEELRSHFLMDSLFTENKLTMYYSHEDRVVIGGAAPGQSELKLDAGDFLKTDFFLERREIGIINVGQPGAVRVGDDEYVLQTKDFLYIGMGNQDVSFSSLNGEKAKFYFVSACAHKSYPTQKAALSELTPDRLGDDAASNVRSLYKVIHQDGIKSCQLMMGITMLDQNNNWNTMPAHVHDRRMEAYLYLDLEKDSKVFHFMGQPDETRHLVVGNEQAVLSPAWSIHSGAGTSNYSFVWAMAGENYTFTDMDLIPMDGLK,not soluble
10,NTLTVKMNDALSSGTGENIGEITVSETPYGLLFTPHLNGLTPGIHGFHVHTNPSCMPGMKDGKEVPALMAGGHLDPEKTGKHLGPYNDKGHLGDLPGLVVNADGTATYPLLAPRLKSLSELKGHSLMIHKGGDNYSDKPAPLGGGGARFACGVIEK,soluble
11,MFRAAAPGQLRRAASLLRFQSTLVIAEHANDSLAPITLNTITAATRLGGEVSCLVAGTKCDKVAQDLCKVAGIAKVLVAQHDVYKGLLPEELTPLILATQKQFNYTHICAGASAFGKNLLPRVAAKLEVAPISDIIAIKSPDTFVRTIYAGNALCTVKCDEKVKVFSVRGTSFDAAATSGGSASSEKASSTSPVEISEWLDQKLTKSDRPELTGAKVVVSGGRGLKSGENFKLLYDLADQLHAAVGASRAAVDAGFVPNDMQVGQTGKIVAPELYIAVGISGAIQHLAGMKDSKTIVAINKDPEAPIFQVADYGIVADLFKVVPEMTEILKKK,soluble
12,MGSDKIHHHHHHMIINNVNMVLSQEIIHGSLEVRNGVIHHINDRPSRHPGALDGEQAWLLPGLVELHTDNLDKCFTPRPGVNWPSEAAMRNHDALIISSGITTVLDAVAVGDVRDGGHRLENLRRMTDAVLYSQQHGTNRADHHLHLRCELPHQDTFPLFEQLADIPLVALASLMDHSPGQRQFSSQEKYHQYYKGKYHLNDEQMAAFEEEQLAGSRRWSQPNREAIVRLCHEKGITLASHDDATSEHITESHQHRVAIAEFPTTEIAAQQAHGVGMNVLMGAPNVICGGSHSGNVSAHHLATLGVLHILSSDYYPASLLEAAFMIAEDERNDYDLPRAIALVSNNPAQALKFDDRGCIEEGRRADLLLVKRHAPQMKLMRVWRQGVRVF,not soluble
13,MPAELLLYRSNLLGSDLTVTNFGGGNTSAKLEEMDPLTGEPVEVLWVKGSGGDIGSMKIDGFATLYQAKLLGLEAHYAGPQDDDKMVGFLPHCTFNLNCRAASIDTPLHSLLPFAHVDHVHPDAIIALAASSGGEAATKEIWGGRIGWLPWKRPGYTLGVMLRDFVKANPGVEGVMLAGHGIICWADSAKACYEHTVRLIADAAGYLNARLAEKPAFGGRLEHHHHHH,not soluble
14,MGSDKIHHHHHHMAYLDNIAVFVRVVELGNLSAAGRDMRISPAVASNRIKELEKHLGVRLFNRTTRQLMPTEHGTVFYSGAKQVLEAITEAEAAVSALSGQPRGTIRVTAPLGLGRRLVASGIPDFHDKYPDIEVRLRLSDHNVDIMKEGIDVAFRLGIIEDSSLRMRGIMECERVLVAAPKYLEARGEPAEPQELIGKKHDCLMLRYSGAREYVWTLQTPTGPQKFEVHGPYDTDDGDVLTGWALSGRGIINKPRFEVEPFIRDRRLQVILANTPPTPVQFAAVYPHKKLQDPKVRLLLDFMAERCQRLIKDILAGK,not soluble
15,MHKTIAVLLGIVCFLPVMAKAGGAETDATDASDVKTLFFNHDDRVPVADPTQSPWDAIGQLETASGNLCTATLISPHIALTAGHCLLTPPKGKPDKAVALRFVARKGVWRYEIHGIEGRVEPSLGRRLKADGDGWIVPPAAASWDFGLVILRYPPSGITPVPLFTGDKAALTAALKAADRKVTQSGYPEDHLNALYSHQDCVVTGWAQNAVLSHQCDTLPGDSGSPLLLHTDSGWQLIGVQSSAPAAKDRWRADNRAISVTGFRDKLKALAQD,not soluble
16,MGSDKIHHHHHHLPTIEQNRAPPFLAGLFCAIDLERRFLSNGKQKDFIMLDANTAQNPALLTVGYEGTDLRRFLACLEQSGVKTLVDVRERAQSRKKGFSKTALAEALAGIGIRYVHLRDLGDPKPGRDAARAGDYETFRKVFTSHMDTDAAKSALSELDTLAKEDRTCILCFERCHTECHRAIVATYLKELSPYDVVHVEV,not soluble
17,HPISLMRAPVNEIMVGLGYYEVMPFTLTSEKVNFENMCREKTDDVTYVLHPISEDQTMLRTTVLPNLLEILALNQHRELPQKIFEFGEVVSNETTGQHVAAVSIHPQANFTEVYEVVDAFMREMMLSYEVKESKDPAFLEGRRADVYVNGKKLGVFGELQPEVISKFSLGYAVVGFELDLNDLIGKN,not soluble
18,MKKRAGIWAALLLAAVMLAGCGNPADQKDSKAKQKTEVFPVTIDDASNQDVTIKKEPKKIVSLMPSNTEITYALGLGDKVVGVTTNDTYPKEVKKVEKVGDMNVNVEKVISLKPDLVLAHESSMSASADAIKQLKDAGITVLTVNDAQSFSEVYKSIEMIGEAGGAEKKADQLVKSMKSDLKDIQEKAKTISKDEEKSVFIEVSPDPDIYTTGKDTFMNEMLNVIHAKNAAADQTGWVQMTDEAIVKLNPDAIVTTDGVKAKAVEKRDGWSEINAVKHHRVYDVDPDLVTRSGPRLIEGVEELAESIYPDTFKE,not soluble
19,MRGSHHHHHHGSMEEYYMKLALDLAKQGEGQTESNPLVGAVVVKDGQIVGMGAHLKYGEAHAEVHAIHMAGAHAEGADIYVTLEPCSHYGKTPPCAELIINSGIKRVFVAMRDPNPLVAGRGISMMKEAGIEVREGILADQAERLNEKFLHFMRTGLPYVTLKAAASLDGKIATSTGDSKWITSEAARQDAQQYRKTHQSILVGVGTVKADNPSLTCRLPNVTKQPVRVILDTVLSIPEDAKVICDQIAPTWIFTTARADEEKKKRLSAFGVNIFTLETERIQIPDVLKILAEEGIMSVYVEGGSAVHGSFVKEGCFQEIIFYFAPKLIGGTHAPSLISGEGFQSMKDVPLLQFTDITQIGRDIKLTAKPTKE,soluble
20,MSLKDKFGREIRSLRISITNKCNLQCFYCHREGHDSNNDRYMTPEEIGIIAKTSTKFGVKKIKISGGEPLLRKDVCEIIENIKDERIKDISLTTNGILLENLAEKLKDAGLNRVNVSLDTLNPELYKKITKFGDVERVINGIKKAIDVSLTPLKVNFLAMSINIKDLPDIMEFCRDIGAILQIIEFIPLKEELKGYYYNISPIENEIKEKADKVITRNFMQNRKKYIVDGLEIEFVRPMDNSEFCMHCTRIRLTYDGYLKPCLLRDDNLVDVLTPLRKGENLEPYFIECINRREPYFKIKEGHHHHHH,soluble
21,GMTTSEHIAALTALVETYVMAMTRGDRPALERIFFGKASEVGHYEGELLWNSRDAFIAMCEDAADAETDPFWAISSVSVQGDIAMLHVENDWAGMRFDDFLTVLLHEGSWRIVSKVYRIR,soluble
22,MGSDKIHHHHHHMITTTIFPGRYVQGAGAINILEEELSRFGERAFVVIDDFVDKNVLGENFFSSFTKVRVNKQIFGGECSDEEIERLSGLVEEETDVVVGIGGGKTLDTAKAVAYKLKKPVVIVPTIASTDAPCSALSVIYTPNGEFKRYLFLPRNPDVVLVDTEIVAKAPARFLVAGMGDALATWFEAESCKQKYAPNMTGRLGSMTAYALARLCYETLLEYGVLAKRSVEEKSVTPALEKIVEANTLLSGLGFESGGLAAAHAIHNGLTVLENTHKYLHGEKVAIGVLASLFLTDKPRKMIEEVYSFCEEVGLPTTLAEIGLDGVSDEDLMKVAEKACDKNETIHNEPQPVTSKDVFFALKAADRYGRMRKNLT,soluble
23,MAYVESFYMDASLESDADVLPASESDMFEAQFIADVPLDGDAIIRIVDSQLAFEQRNHVVSDYCTMKAAELEKNPNQLTMNSSVMDNQQYFAPPKSESSQYAWNTNDVVSSHHQYAAQSPNIYTNDYHTSEPSDYAYI,not soluble
24,SNAMVEAIIFDMDGVLFDTEKYYYDRRASFLGQKGISIDHLPPSFFIGGNTKQVWENILRDEYDKWDVSTLQEEYNTYKQNNPLPYKELIFPDVLKVLNEVKSQGLEIGLASSSVKADIFRALEENRLQGFFDIVLSGEEFKESKPNPEIYLTALKQLNVQASRALIIEDSEKGIAAGVAADVEVWAIRDNEFGMDQSAAKGLLDSLTDVLDLI,soluble
